Source: patent publication US20190361034A1
Each block holds one substance with its values, some of them ahead of it.

Assays:
[1] = molecular target: MHC class II molecules on MHC class II-expressing Raji cells (human); assay: transfer cell ELISA, Raji cells; 125 ng/ml; plate row D
[2] = molecular target: MHC class II molecules on MHC class II-expressing Raji cells (human); assay: transfer cell ELISA, Raji cells; 500 ng/ml; plate row D
[3] = molecular target: MHC class II molecules on MHC class II-expressing Raji cells (human); assay: transfer cell ELISA, Raji cells; 1000 ng/ml; plate row D
[4] = molecular target: MHC class II molecules on MHC class II-expressing Raji cells (human); assay: transfer cell ELISA, Raji cells; 62.5 ng/ml; plate row D
[5] = molecular target: MHC class II molecules on MHC class II-expressing Raji cells (human); assay: transfer cell ELISA, Raji cells; 15.63 ng/ml; plate row C
[6] = molecular target: MHC class II molecules on MHC class II-expressing Raji cells (human); assay: transfer cell ELISA, Raji cells; 15.63 ng/ml; plate row D
[7] = molecular target: MHC class II molecules on MHC class II-expressing Raji cells (human); assay: direct ELISA, plate-immobilised Raji cells; 5% BSA, 2,500 cells; 125 ng/ml
[8] = molecular target: MHC class II molecules on MHC class II-expressing Raji cells (human); assay: direct ELISA, plate-immobilised Raji cells; 5% BSA, 2,500 cells; 250 ng/ml
[9] = molecular target: MHC class II molecules on MHC class II-expressing Raji cells (human); assay: direct ELISA, plate-immobilised Raji cells; 5% BSA, 2,500 cells; 500 ng/ml
[10] = molecular target: MHC class II molecules on MHC class II-expressing Raji cells (human); assay: direct ELISA, plate-immobilised Raji cells; 10% FBS, 2,500 cells; 250 ng/ml
[11] = molecular target: MHC class II molecules on MHC class II-expressing Raji cells (human); assay: direct ELISA, plate-immobilised Raji cells; 10% FBS, 2,500 cells; 500 ng/ml
[12] = molecular target: MHC class II molecules on MHC class II-expressing Raji cells (human); assay: direct ELISA, plate-immobilised Raji cells; 10% FBS, 5,000 cells; 250 ng/ml
[13] = molecular target: MHC class II molecules on MHC class II-expressing Raji cells (human); assay: direct ELISA, plate-immobilised Raji cells; 5% BSA, 10,000 cells; 500 ng/ml
[14] = molecular target: MHC class II molecules on MHC class II-expressing Raji cells (human); assay: direct ELISA, plate-immobilised Raji cells; 5% BSA, 2,500 cells; 1000 ng/ml
[15] = molecular target: MHC class II molecules on MHC class II-expressing Raji cells (human); assay: direct ELISA, plate-immobilised Raji cells; 10% FBS, 5,000 cells; 1000 ng/ml
[16] = molecular target: MHC class II molecules on MHC class II-expressing Raji cells (human); assay: direct ELISA, plate-immobilised Raji cells; 5% BSA, 10,000 cells; 1000 ng/ml
[17] = molecular target: MHC class II molecules on MHC class II-expressing Raji cells (human); assay: direct ELISA, plate-immobilised Raji cells; 5% BSA, 10,000 cells; 62.5 ng/ml
[18] = molecular target: MHC class II molecules on MHC class II-expressing Raji cells (human); assay: direct ELISA, plate-immobilised Raji cells; 10% FBS, 10,000 cells; 1000 ng/ml
[19] = molecular target: MHC class II molecules on MHC class II-expressing Raji cells (human); assay: direct ELISA, plate-immobilised Raji cells; 5% BSA, 5,000 cells; 15.625 ng/ml
[20] = molecular target: MHC class II molecules on MHC class II-expressing Raji cells (human); assay: transfer cell ELISA, Raji cells; 3.906 ng/ml
[21] = molecular target: MHC class II molecules on MHC class II-expressing Raji cells (human); assay: transfer cell ELISA, Raji cells; 31.25 ng/ml
[22] = molecular target: MHC class II molecules on MHC class II-expressing Raji cells (human); assay: BLI; immobilised sample, Raji cells in solution; dark control of FIG. 24
[23] = molecular target: MHC class II molecules on MHC class II-expressing Raji cells (human); assay: BLI; immobilised sample, Raji cells in solution; pH 7.0 control of FIG. 20
[24] = molecular target: MHC class II molecules on MHC class II-expressing Raji cells (human); assay: direct ELISA, plate-immobilised Raji cells; 0.5% Casein, 2,500 cells; 250 ng/ml
[25] = molecular target: MHC class II molecules on MHC class II-expressing Raji cells (human); assay: direct ELISA, plate-immobilised Raji cells; 0.5% Casein, 2,500 cells; 500 ng/ml
[26] = molecular target: MHC class II molecules on MHC class II-expressing Raji cells (human); assay: direct ELISA, plate-immobilised Raji cells; 0.5% Casein, 5,000 cells; 500 ng/ml
[27] = molecular target: MHC class II molecules on MHC class II-expressing Raji cells (human); assay: direct ELISA, plate-immobilised Raji cells; 3% gelatin, 10,000 cells; 250 ng/ml
[28] = molecular target: MHC class II molecules on MHC class II-expressing Raji cells (human); assay: direct ELISA, plate-immobilised Raji cells; 0.5% Casein, 5,000 cells; 62.5 ng/ml
[29] = molecular target: MHC class II molecules on MHC class II-expressing Raji cells (human); assay: direct ELISA, plate-immobilised Raji cells; 3% gelatin, 2,500 cells; 15.625 ng/ml
[30] = molecular target: MHC class II molecules on MHC class II-expressing Raji cells (human); assay: direct ELISA, plate-immobilised Raji cells; 0.5% Casein, 5,000 cells; 15.625 ng/ml
[31] = molecular target: MHC class II molecules on MHC class II-expressing Raji cells (human); assay: BLI; immobilised sample, Raji cells in solution; control of FIG. 18 (37° C., 1 day, no H2O2)
[32] = molecular target: MHC class II molecules on MHC class II-expressing Raji cells (human); assay: BLI; IMP321 sample at 100% binding potency, Raji cells in solution; relative to reference standard
[33] = molecular target: MHC class II molecules on MHC class II-expressing Raji cells (human); assay: BLI; IMP321 sample diluted from reference standard to 50% binding potency, Raji cells in solution; relative to reference standard

OD (ELISA signal) [1]: 0.206 OD
OD (ELISA signal) [2]: 0.594 OD
OD (ELISA signal) [3]: 1.13 OD
OD (ELISA signal) [4]: 0.076 OD
OD (ELISA signal) [5]: 0.035 OD
OD (ELISA signal) [6]: 0.029 OD
OD (ELISA signal) [7]: 0.415 OD
OD (ELISA signal) [8]: 0.893 OD
OD (ELISA signal) [9]: 1.32 OD
OD (ELISA signal) [10]: 1.29 OD
OD (ELISA signal) [11]: 1.8 OD
OD (ELISA signal) [12]: 0.939 OD
OD (ELISA signal) [13]: 1.3 OD
OD (ELISA signal) [14]: 1.83 OD
OD (ELISA signal) [15]: 2.25 OD
OD (ELISA signal) [16]: 1.77 OD
OD (ELISA signal) [17]: 0.283 OD
OD (ELISA signal) [18]: 1.34 OD
OD (ELISA signal) [19]: 0.274 OD
Substance: IMP321 treated with Peptide-N-Glycosidase F (PNGase F) (Fc fusion)

OD (ELISA signal) [20]: 0.034 OD
OD (ELISA signal) [21]: 0.159 OD
Bioactivity (binding) [22]: 100%
Bioactivity (binding) [23]: 126%
OD (ELISA signal) [24]: 0.231 OD
OD (ELISA signal) [25]: 0.18 OD
OD (ELISA signal) [26]: 0.206 OD
OD (ELISA signal) [27]: 1.39 OD
OD (ELISA signal) [28]: 0.131 OD
OD (ELISA signal) [29]: 0.295 OD
OD (ELISA signal) [30]: 0.207 OD
Bioactivity (binding) [31]: 77%
Potency determined by BLI assay [32]: 98%
Potency determined by BLI assay [33]: 55%
Substance: IMP321, recombinant soluble human LAG-3Ig fusion protein (Fc fusion)
